Here are results for two molecules from US9308238B2, “Compositions and methods for modulating EMT and uses thereof” (Whitehead Institute for Biomedical Research, priority 2010, dated 2016).

One test has as its system HTwist cells. Briefly: Boyden chamber migration assay, HTwist cells (single vs combined proteins). It counts as cell-based, human. Particulars: DKK1 1 μg/ml, SFRP1, BMP4 0.5 μg/ml.
Test [1] deals with MSP-RAS cells. Briefly: Boyden chamber migration assay, MSP-RAS cells. It counts as cell-based, human. Particulars: SFRP1 1 μg/ml, BMP4 0.5 μg/ml. On the procedure: (§1) FIGS. 4A-4G. Autocrine Signaling controls tumorigenicity and metastasis of MSP-RAS cells. (FIG. 4A) Migration assay: RAS-transformed MSP (MSP-RAS) were seeded in Boyden Chamber migration assays and recombinant SFRP1 (1 μg/ml) and BMP4 protein (0.5 μg/ml) were added; *control vs. single treatment, p<1×10^−8, **single vs. double treatment with SFRP1 and BMP4 (S+B), p<1×10^−4, n=3. […] (FIG. 4E) Lung metastasis: fluorescence microscopy images of the major left lung lobe showing GFP-expressing metastatic nodules and quantification of the number of lung surface metastases; *control vs. SFRP1 treatment, p<0.05, **SFRP1 vs. BMP4 or double treatment (S+B), p<0.05, n=5 mice/group. (FIG. 4F) Liver metastasis: fluorescence microscopy images of the liver surface showing GFP-expressing micro-metastatic nodules after implantation of cells as described in (D) and quantification: 5 fields of liver surface were counted per mouse, *control vs. single treatment, p<0.05, **single vs. double treatment (S+B), p<0.05, n=5 mice/group. […]

Test [2] deals with MSP-RAS cells. The test can be described thus: Orthotopic tumor formation and metastasis after ex vivo treatment of MSP-RAS tumorspheres. Type of test: in vivo, mice. As to conditions: for reduction in lung metastases / reduction of metastatic foci in the liver: foci normalized by primary tumor weight, ex vivo treatment; for reduction of tumor weight / reduction of metastatic foci in the liver: on average. The method, then:
FIGS. 4A-4G. Autocrine Signaling controls tumorigenicity and metastasis of MSP-RAS cells. (FIG. 4A) Migration assay: RAS-transformed MSP (MSP-RAS) were seeded in Boyden Chamber migration assays and recombinant SFRP1 (1 μg/ml) and BMP4 protein (0.5 μg/ml) were added; *control vs. single treatment, p<1×10^−8, **single vs. double treatment with SFRP1 and BMP4 (S+B), p<1×10^−4, n=3. (FIG. 4B) Tumorsphere assay: SFRP1 (1 μg/ml) and BMP4 protein (0.5 μg/ml) were added daily during primary sphere formation (5 days), spheres were dispersed and seeded for secondary sphere formation in the absence of further treatment; #control primary vs. secondary sphere formation, p=0.001; *control vs. single treatment, p<1×10^−4, **single vs. double treatment with SFRP1 and BMP4 (S+B), p<0.01, n(tumorspheres)/1000 cells, n=6. (FIG. 4C) Flow cytometry: CD44 and CD24 cell-surface markers of dissociated primary tumorspheres as described in (B). (FIG. 4D) Orthotopic tumor formation after ex vivo treatment during tumorsphere formation: primary tumorspheres as generated in (B) were pooled, dissociated and 1.0×10^5 cells were implanted in the fat pads of mice; shown are tumor weight and incidence, *indicates absence of tumor, n=5 mice/group. (FIG. 4E) Lung metastasis: fluorescence microscopy images of the major left lung lobe showing GFP-expressing metastatic nodules and quantification of the number of lung surface metastases; *control vs. SFRP1 treatment, p<0.05, **SFRP1 vs. BMP4 or double treatment (S+B), p<0.05, n=5 mice/group. (FIG. 4F) Liver metastasis: fluorescence microscopy images of the liver surface showing GFP-expressing micro-metastatic nodules after implantation of cells as described in (D) and quantification: 5 fields of liver surface were counted per mouse, *control vs. single treatment, p<0.05, **single vs. double treatment (S+B), p<0.05, n=5 mice/group. (FIG. 4G) Tumorigenicity assay: MSP-RAS cells suspended in PBS containing SFRP1 (1 μg/ml), BMP4 (0.5 μg/ml), and a combination of both (S+B) were implanted subcutaneously in mice at indicated cell numbers. In addition, 20 μl of PBS or PBS with proteins at indicated doses was injected peri-tumorally at 1, 2, 3 and 7 days after implanting the MSP-RAS cells.
We also wished to determine whether in vitro exposure to SFRP1 and BMP4 influenced subsequent in vivo behavior of MSP-RAS cells. For this purpose, we prepared single-cell suspensions from primary control MSP-RAS tumorspheres or from the residual tumorspheres that had formed during a 5 day in vitro treatment with SFRP1, BMP4 or a combination of both. Following injection of these populations into the mammary fat pads of mice, we noted that the tumors that originated from mammospheres of MSP-RAS cells that had been exposed ex vivo to either SFRP1, BMP4 or a combination of both were reduced in weight by 3-fold on average (FIG. 4D). However, we only observed a modest reduction in tumor incidence for the BMP4 and combination-treated groups (30%, FIG. 4D).
Animal studies. All research involving animals complied with protocols approved by the MIT Committee on Animal Care. For tumorigenicity studies, indicated numbers of cells in 100 μL of Matrigel (BD Biosciences) diluted 1:4 in PBS were injected subcutaneously in the left and right flanks of age-matched female nude (nu/nu) mice. Mice were sacrificed and necropsied after 10 weeks. For orthotopic injections, 1×10^5 cells suspended in PBS were injected into each of the two inguinal mammary glands of age-matched female NOD-SCID mouse. Mice were sacrificed after 10 weeks or when tumors reached a diameter >1 cm. Lung surface metastases were counted using a fluorescent microscope within 3 hr of specimen isolation.

The subject of test [3] is MSP-RAS cells. The test can be described thus: Subcutaneous tumorigenicity assay with proteins co-implanted and injected peri-tumorally. It counts as in vivo, mice. As to conditions: subcutaneous limiting dilutions with protein; peri-tumoral injection at 1, 2, 3 and 7 days. On the procedure:
as §1
Animal studies. […] Lung surface metastases were counted using a fluorescent microscope within 3 hr of specimen isolation.

The mark [4] stands for this setting: 5 day ex vivo treatment, mammary fat pad injection.

Protocol for HTwist cells: Migration and invasion assays. For migration assays, 2×10^4 cells were seeded into 24-well cell culture inserts with 8-μm pores (Boyden Chambers, BD Falcon). […] After 12-48 hr, the cells on the upper surface of the filters were removed with a cotton swab. For visualization, cells on lower filter surfaces were fixed and stained with a Diff-Quick staining kit (Dade Behring).

B1: SFRP1: Recombinant human SFRP1 protein (R&D Systems), secreted decoy receptor binding canonical and non-canonical Wnt ligands (protein, UniProt Q8N474 32-314, looked up)
Secreted frizzled-related …: SEYDYVSFQSDIGPYQSGRFYTKPPQCVDIPADLRLCHNVGYKKMVLPNLLEHETMAEVKQQASSWVPLLNKNCHAGTQVFLCSLFAPVCLDRPIYPCRWLCEAVRDSCEPVMQFFGFYWPEMLKCDKFPEGDVCIAMTPPNATEASKPQGTTVCPPCDNELKSEAIIEHLCASEFALRMKIKEVKKENGDKKIVPKKKKPLKLGPIKKKDLKKLVLYLKNGADCPCHQLDNLSHHFLIMGRKVKSQYLLTAIHKWDKKNKEFKNFMKKMKNHECPTFQSVFK
B1: the “reduction of migration, single vs combined proteins” value with HTwist cells is given as 5 fold. Moreover, the “decrease of motility in vitro” value with MSP-RAS cells [1] worked out at 9 fold. In addition, in the test with MSP-RAS cells [2], the “reduction in lung metastases” value is listed as 2 fold and the “reduction of metastatic foci in the liver” value is reported as 2.5 fold. Also, the “reduction of tumor weight” value in the test with MSP-RAS cells [2] (setting [4]) is 3 fold. The “reduction of tumor incidence” value with MSP-RAS cells [3] is “at least one order of magnitude”.

B2: BMP4: Recombinant BMP4 protein obtained from Stemgent (protein, UniProt P12644 293-408, looked up)
Bone morphogenetic protein 4: SPKHHSQRARKKNKNCRRHSLYVDFSDVGWNDWIVAPPGYQAFYCHGDCPFPLADHLNSTNHAIVQTLVNSVNSSIPKACCVPTELSAISMLYLDEYDKVVLKNYQEMVVEGCGCR
Take B2: the “reduction of migration, single vs combined proteins” value with HTwist cells came to 2 fold. Also, the “decrease of motility in vitro” value in the test on MSP-RAS cells [1] is 4 fold. For the same molecule, in the test with MSP-RAS cells [2] (setting [4]), the “reduction in tumor incidence” value was determined as 30% and the “reduction of tumor weight” value came out at 3 fold. In the test on MSP-RAS cells [2], the “reduction in lung metastases” value turned out to be 7.5 fold and the “reduction of metastatic foci in the liver” value was determined as 5 fold. The “reduction of tumor incidence” value in the test with MSP-RAS cells [3] is “at least one order of magnitude”.
